Paper PMC9902482, “Isoform- and ligand-specific modulation of the adhesion GPCR ADGRL3/Latrophilin3 by a synthetic binder” (Nature Communications, 2023)

Columns and labels:
[1] = target: T1, full-length TEN2 expressed on HEK293T cells (UniProt Q9NT68 1-2774); assay: flow cytometry on cells; biotinylated ADGRL3 Lec domain titrated on HEK293T cells expressing full-length TEN2, detected with DyLight 650 neutravidin; settings: one partner purified
T1 construct: teneurin-2 (TEN2), full length; Co-transfected with dsRed in the cell aggregation assay; also called FL TEN2; teneurin; source: HEK293T, transfected, on the cell surface

[2] = target: T2, full-length ADGRL3 expressed on HEK293T cells (human, UniProt Q9HAR2); assay: cell-based or functional assay
Lec domain of ADGRL3 [3] = target: T3, Lec domain of ADGRL3 (human, UniProt Q9HAR2, biotin on the Avi-tag (BirA) in the flow cytometry experiments); assay: flow cytometry on cells; competition: 5 µM ADGRL3 Lec domain pre-bound to TEN2 on HEK293T cells, increasing concentrations of LK30; row of LK30 with the Lec domain; settings: both partners purified
T3 construct: ADGRL3 (Latrophilin3), human, N-terminal Lectin (Lec) domain; also called ADGRL3Lec; lectin domain of ADGRL3; source: High Five insect cells (baculovirus), secreted, purified (Ni-NTA, SEC)

Lec domain of ADGRL1 = target: T4, Lec domain of ADGRL1 (Rattus norvegicus, UniProt O88917); assay: SPR; targets immobilised via His-tag on NTA sensor chip, sAB injected in 2-fold serial dilutions (25, 12.5, 6.25, 3.125 nM), RT, MASS-1 instrument, one-to-one Langmuir fit; settings: both partners purified
T4 construct: ADGRL1 (Latrophilin1), rat, Lectin (Lec) domain; In the ELISA the target was held on a neutravidin plate, so it was probably biotinylated; also called Lec domain from ADGRL1; ADGRL1 lectin domain; source: baculovirus method (all proteins); not further stated for this fragment

Lec domain of ADGRL3 [4] = target: T3, Lec domain of ADGRL3; assay: as above; settings: both partners purified
[5] = target: T2, full-length ADGRL3 expressed on HEK293T …; assay: flow cytometry on cells; HEK293T cells expressing full-length receptor, increasing concentrations of LK30, 30 min at 4 °C, detected with Alexa Fluor 647 anti-human F(ab')2; apparent affinity from MFI; settings: one partner purified
[6] = target: T5, full-length ADGRL1 expressed on HEK293T cells (Rattus norvegicus (assumed for …, UniProt O88917)); assay: as above; settings: one partner purified
T5 construct: ADGRL1 (Latrophilin1), full length; also called Latrophilin1; source: HEK293T, transfected, on the cell surface; not shown: FLAG, N-terminal, kept

T2 sequence (Q9HAR2 20-1447): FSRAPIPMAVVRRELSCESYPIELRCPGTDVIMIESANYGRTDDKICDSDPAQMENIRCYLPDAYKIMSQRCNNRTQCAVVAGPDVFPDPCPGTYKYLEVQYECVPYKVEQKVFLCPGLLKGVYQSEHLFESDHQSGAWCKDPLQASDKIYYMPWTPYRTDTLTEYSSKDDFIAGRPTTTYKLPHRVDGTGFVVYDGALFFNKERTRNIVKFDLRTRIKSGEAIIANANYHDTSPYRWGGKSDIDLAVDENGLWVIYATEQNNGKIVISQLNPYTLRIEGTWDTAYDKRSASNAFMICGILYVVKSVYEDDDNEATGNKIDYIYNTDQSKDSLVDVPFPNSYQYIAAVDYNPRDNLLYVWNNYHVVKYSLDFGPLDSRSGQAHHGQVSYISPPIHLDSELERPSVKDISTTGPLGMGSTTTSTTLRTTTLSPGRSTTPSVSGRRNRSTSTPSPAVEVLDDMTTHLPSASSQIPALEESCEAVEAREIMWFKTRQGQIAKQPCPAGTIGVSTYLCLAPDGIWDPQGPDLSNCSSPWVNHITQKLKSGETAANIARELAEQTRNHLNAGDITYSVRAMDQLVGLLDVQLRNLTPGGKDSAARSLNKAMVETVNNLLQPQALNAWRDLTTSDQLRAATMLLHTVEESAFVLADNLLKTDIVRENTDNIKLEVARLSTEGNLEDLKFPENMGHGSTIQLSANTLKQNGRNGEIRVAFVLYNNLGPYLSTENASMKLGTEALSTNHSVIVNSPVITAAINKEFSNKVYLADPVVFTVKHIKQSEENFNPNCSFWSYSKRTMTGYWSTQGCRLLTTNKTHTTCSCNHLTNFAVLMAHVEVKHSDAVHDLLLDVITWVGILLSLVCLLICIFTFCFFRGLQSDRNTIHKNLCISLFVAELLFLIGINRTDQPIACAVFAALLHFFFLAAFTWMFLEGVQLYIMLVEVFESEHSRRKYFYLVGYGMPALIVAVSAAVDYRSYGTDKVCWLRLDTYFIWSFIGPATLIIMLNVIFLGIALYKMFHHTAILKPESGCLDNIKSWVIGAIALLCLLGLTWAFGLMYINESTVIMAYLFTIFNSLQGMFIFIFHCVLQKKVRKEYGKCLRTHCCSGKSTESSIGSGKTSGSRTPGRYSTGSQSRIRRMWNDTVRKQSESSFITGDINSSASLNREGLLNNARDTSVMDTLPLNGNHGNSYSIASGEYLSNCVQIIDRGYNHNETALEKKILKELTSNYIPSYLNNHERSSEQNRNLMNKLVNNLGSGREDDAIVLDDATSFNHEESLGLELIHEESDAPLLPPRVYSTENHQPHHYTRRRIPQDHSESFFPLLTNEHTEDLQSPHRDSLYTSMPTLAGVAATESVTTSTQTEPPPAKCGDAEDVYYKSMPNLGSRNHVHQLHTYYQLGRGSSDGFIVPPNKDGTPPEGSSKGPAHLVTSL
T1 sequence (Q9NT68 whole entry, the tested form may be a part): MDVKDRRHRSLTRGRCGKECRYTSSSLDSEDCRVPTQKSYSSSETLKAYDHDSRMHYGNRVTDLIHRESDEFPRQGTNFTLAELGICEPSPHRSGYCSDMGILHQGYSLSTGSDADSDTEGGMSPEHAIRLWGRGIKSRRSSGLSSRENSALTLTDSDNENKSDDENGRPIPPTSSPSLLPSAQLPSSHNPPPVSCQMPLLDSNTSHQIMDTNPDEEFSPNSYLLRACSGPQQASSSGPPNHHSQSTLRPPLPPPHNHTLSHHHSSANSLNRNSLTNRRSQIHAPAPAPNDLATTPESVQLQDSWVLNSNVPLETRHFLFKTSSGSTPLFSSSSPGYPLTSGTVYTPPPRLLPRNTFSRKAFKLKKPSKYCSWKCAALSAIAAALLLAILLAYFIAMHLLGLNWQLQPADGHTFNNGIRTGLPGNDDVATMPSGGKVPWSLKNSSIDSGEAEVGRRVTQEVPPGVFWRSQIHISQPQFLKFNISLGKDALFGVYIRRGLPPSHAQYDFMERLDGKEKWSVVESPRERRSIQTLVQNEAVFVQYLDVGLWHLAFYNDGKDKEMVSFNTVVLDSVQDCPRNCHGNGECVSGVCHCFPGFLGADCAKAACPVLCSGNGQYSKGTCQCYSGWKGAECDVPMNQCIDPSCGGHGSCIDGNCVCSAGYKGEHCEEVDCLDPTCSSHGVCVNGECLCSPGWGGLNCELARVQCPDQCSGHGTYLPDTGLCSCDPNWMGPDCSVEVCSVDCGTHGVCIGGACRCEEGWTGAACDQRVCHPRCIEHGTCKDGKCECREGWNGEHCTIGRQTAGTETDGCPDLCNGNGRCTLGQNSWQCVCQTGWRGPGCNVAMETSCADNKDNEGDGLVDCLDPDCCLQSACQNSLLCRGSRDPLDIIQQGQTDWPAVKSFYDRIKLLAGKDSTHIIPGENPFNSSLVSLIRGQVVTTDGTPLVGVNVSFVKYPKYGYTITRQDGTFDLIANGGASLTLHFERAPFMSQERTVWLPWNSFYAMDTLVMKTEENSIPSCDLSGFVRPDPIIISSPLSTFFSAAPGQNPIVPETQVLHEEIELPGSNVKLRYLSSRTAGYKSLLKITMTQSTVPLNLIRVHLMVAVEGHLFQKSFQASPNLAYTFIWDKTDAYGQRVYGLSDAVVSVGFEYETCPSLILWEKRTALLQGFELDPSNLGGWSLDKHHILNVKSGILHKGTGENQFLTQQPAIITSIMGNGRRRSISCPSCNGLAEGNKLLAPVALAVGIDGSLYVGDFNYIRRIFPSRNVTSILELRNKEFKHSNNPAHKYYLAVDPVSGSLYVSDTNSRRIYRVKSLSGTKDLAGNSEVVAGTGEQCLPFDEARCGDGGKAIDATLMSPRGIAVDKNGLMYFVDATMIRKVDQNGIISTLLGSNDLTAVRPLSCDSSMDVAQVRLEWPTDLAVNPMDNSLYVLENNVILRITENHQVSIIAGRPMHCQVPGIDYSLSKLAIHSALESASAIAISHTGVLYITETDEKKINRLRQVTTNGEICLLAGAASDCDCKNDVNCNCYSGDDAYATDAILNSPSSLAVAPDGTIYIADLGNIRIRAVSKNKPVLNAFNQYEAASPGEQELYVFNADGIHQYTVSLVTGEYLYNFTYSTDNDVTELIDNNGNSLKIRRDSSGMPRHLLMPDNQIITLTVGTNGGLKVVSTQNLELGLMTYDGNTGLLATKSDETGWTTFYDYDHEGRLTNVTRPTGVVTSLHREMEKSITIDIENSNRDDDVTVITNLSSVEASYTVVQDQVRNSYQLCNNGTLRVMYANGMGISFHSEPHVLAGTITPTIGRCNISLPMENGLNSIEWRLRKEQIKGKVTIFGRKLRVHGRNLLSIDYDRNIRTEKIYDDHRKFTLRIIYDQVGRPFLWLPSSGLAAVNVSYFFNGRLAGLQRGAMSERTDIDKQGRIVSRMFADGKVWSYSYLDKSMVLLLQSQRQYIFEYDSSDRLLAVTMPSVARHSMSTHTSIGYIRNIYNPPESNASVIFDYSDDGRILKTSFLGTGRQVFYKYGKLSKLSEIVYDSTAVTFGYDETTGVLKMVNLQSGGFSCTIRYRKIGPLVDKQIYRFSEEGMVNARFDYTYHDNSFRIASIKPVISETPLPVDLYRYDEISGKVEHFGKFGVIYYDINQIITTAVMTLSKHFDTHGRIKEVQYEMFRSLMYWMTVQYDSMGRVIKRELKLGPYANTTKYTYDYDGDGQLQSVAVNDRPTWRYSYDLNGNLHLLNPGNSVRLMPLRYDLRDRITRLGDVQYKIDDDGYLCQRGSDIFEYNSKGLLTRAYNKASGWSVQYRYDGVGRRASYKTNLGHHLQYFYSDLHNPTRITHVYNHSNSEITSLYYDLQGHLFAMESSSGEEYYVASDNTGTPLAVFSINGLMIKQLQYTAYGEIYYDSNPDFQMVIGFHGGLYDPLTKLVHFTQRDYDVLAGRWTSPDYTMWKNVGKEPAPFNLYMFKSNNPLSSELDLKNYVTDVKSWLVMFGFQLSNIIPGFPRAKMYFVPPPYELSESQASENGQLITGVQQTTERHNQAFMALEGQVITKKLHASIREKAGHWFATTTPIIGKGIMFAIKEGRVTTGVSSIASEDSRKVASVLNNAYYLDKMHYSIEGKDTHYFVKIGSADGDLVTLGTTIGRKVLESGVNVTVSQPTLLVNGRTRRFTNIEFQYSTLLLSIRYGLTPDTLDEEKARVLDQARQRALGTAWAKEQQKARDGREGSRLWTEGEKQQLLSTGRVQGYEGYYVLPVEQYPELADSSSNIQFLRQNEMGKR

| Binder | Kd [1] | SRE-luciferase assay in HEK293T cells transfected with ADGRL3, 1 µM LK30: fold increase over basal activity [2] | SRE-luciferase assay in HEK293T cells transfected with ADGRL3, titration of LK30: EC50 [2] | IC50 (Lec domain of ADGRL3 [3]) | Kd (Lec domain of ADGRL1) | Kd (Lec domain of ADGRL3 [4]) | Kd [5] | Kd [6] |
| --- | --- | --- | --- | --- | --- | --- | --- | --- |
| Lec domain of ADGRL3 (domain or fragment, human, biotin on the Avi-tag (BirA) in the flow cytometry experiments, ADGRL3 (Latrophilin3), human, N-terminal Lectin (Lec) domain; also called ADGRL3Lec; lectin domain of ADGRL3; source: High Five insect cells (baculovirus), secreted, purified (Ni-NTA, SEC)) PIPMAVVRRELSCESYPIELRCPGTDVIMIESANYGRTDDKICDSDPAQMENIRCYLPDAYKIMSQRCNNRTQCAVVAGPDVFPDPCPGTYKYLEVQYECVPY | 129 nM |  |  |  |  |  |  |  |
| synthetic antibody fragment (sAB) LK30 (Fab, V domains shown, heavy chain (HC) of LK30 in the deposited structure PDB 8DJG; selected from synthetic phage library E on a humanized antibody Fab scaffold; light chain (LC) of LK30 in the deposited structure PDB 8DJG; Fab format (sAB) expressed from vector pRH2.2; source: E. coli BL21 (Gold), purified (protein L, Resource S ion exchange)) VH: EVQLVESGGGLVQPGGSLRLSCAASGFNIYYSSIHWVRQAPGKGLEWVAYISPYSGSTSYADSVKGRFTISADTSKNTAYLQMNSLRAEDTAVYYCARYKYGQGHMGAFDYWGQGTLVTVSS VL: DIQMTQSPSSLSASVGDRVTITCRASQSVSSAVAWYQQKPGKAPKLLIYSASSLYSGVPSRFSGSRSGTDFTLTISSLQPEDFATYYCQQSNTELVTFGQGTKVEIK |  | ~2.5 fold | 42 nM | 193 nM | 11 nM | 7 nM | 131 nM | 147 nM |
